Patent publication US20210115092A1 (YEDA RESEARCH AND DEVELOPMENT, published 2021)

Target: T1, Flag-Cas9 (wild-type, unmodified SpCas9) (Streptococcus pyogenes, UniProt Q99ZW2 2-1368)
T1 construct: expressed in HEK293; also called original Cas9; wt Cas9; not shown: Flag tag and N-terminal NLS of the vector; C-terminal NLS and what remains of the T2A peptide
Assay: co-immunoprecipitation, anti-Flag IP from transfected HEK293 extracts, immunoblot

T1 sequence (Q99ZW2 2-1368): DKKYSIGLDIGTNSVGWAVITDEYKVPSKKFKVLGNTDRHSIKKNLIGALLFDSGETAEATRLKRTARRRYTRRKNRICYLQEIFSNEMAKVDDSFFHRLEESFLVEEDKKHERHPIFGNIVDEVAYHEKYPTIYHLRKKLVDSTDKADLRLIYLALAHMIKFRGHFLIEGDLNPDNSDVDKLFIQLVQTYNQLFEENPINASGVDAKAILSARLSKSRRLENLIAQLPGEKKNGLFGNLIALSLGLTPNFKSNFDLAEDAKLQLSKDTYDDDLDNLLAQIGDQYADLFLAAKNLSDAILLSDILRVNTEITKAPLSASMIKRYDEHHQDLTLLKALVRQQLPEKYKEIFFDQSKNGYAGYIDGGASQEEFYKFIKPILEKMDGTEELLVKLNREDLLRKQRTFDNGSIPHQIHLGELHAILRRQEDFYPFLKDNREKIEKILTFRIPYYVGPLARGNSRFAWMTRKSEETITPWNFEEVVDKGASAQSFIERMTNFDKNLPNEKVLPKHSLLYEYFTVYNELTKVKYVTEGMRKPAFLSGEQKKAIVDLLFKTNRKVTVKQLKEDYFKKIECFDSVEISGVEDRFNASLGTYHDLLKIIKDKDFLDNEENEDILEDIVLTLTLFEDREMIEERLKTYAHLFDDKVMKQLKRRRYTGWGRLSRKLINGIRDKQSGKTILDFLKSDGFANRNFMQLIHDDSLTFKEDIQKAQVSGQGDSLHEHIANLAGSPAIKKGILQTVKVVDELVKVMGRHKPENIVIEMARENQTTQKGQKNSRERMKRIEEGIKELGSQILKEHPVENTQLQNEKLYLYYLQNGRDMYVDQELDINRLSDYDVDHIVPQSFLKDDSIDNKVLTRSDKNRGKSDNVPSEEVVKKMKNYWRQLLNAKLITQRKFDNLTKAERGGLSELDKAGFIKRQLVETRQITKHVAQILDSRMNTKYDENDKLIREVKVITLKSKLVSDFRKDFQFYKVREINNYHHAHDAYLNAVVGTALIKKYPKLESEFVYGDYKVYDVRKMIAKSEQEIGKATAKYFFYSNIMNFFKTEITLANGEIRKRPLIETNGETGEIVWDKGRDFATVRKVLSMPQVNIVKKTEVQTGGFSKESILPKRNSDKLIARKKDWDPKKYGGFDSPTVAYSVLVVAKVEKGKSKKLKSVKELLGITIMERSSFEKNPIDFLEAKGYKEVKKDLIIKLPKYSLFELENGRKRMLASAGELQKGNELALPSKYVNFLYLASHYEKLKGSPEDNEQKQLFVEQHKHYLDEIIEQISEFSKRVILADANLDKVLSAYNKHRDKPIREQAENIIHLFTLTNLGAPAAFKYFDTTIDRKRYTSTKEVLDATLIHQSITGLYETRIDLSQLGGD

B1: DNA repair protein RAD50 (other)
chain: MSRIEKMSILGVRSFGIEDKDKQIITFFSPLTILVGPNGAGKTTIIECLKYICTGDFPPGTKGNTFVHDPKVAQETDVRAQIRLQFRDVNGELIAVQRSMVCTQKSKKTEFKTLEGVITRTKHGEKVSLSSKCAEIDREMISSLGVSKAVLNNVIFCHQEDSNWPLSEGKALKQKFDEIFSATRYIKALETLRQVRQTQGQKVKEYQMELKYLKQYKEKACEIRDQITSKEAQLTSSKEIVKSYENELDPLKNRLKEIEHNLSKIMKLDNEIKALDSRKKQMEKDNSELEEKMEKVFQGTDEQLNDLYHNHQRTVREKERKLVDCHRELEKLNKESRLLNQEKSELLVEQGRLQLQADRHQEHIRARDSLIQSLATQLELDGFERGPFSERQIKNFHKLVRERQEGEAKTANQLMNDFAEKETLKQKQIDEIRDKKTGLGRIIELKSEILSKKQNELKNVKYELQQLEGSSDRILELDQELIKAERELSKAEKNSNVETLKMEVISLQNEKADLDRTLRKLDQEMEQLNHHTTTRTQMEMLTKDKADKDEQIRKIKSRHSDELTSLLGYFPNKKQLEDWLHSKSKEINQTRDRLAKLNKELASSEQNKNHINNELKRKEEQLSSYEDKLFDVCGSQDFESDLDRLKEEIEKSSKQRAMLAGATAVYSQFITQLTDENQSCCPVCQRVFQTEAELQEVISDLQSKLRLAPDKLKSTESELKKKEKRRDEMLGLVPMRQSIIDLKEKEIPELRNKLQNVNRDIQRLKNDIEEQETLLGTIMPEEESAKVCLTDVTIMERFQMELKDVERKIAQQAAKLQGIDLDRTVQQVNQEKQEKQHKLDTVSSKIELNRKLIQDQQEQIQHLKSTTNELKSEKLQISTNLQRRQQLEEQTVELSTEVQSLYREIKDAKEQVSPLETTLEKFQQEKEELINKKNTSNKIAQDKLNDIKEKVKNIHGYMKDIENYIQDGKDDYKKQKETELNKVIAQLSECEKHKEKINEDMRLMRQDIDTQKIQERWLQDNLTLRKRNEELKEVEEERKQHLKEMGQMQVLQMKSEHQKLEENIDNIKRNHNLALGRQKGYEEEIIHFKKELREPQFRDAEEKYREMMIVMRTTELVNKDLDIYYKTLDQAIMKFHSMKMEEINKIIRDLWRSTYRGQDIEYIEIRSDADENVSASDKRRNYNYRVVMLKGDTALDMRGRCSAGQKVLASLIIRLALAETFCLNCGIIALDEPTTNLDRENIESLAHALVEIIKSRSQQRNFQLLVITHDEDFVELLGRSEYVEKFYRIKKNIDQCSEIVKCSVSSLGFNVH
B1: no binding.

B2: Nibrin (other)
chain: MWKLLPAAGPAGGEPYRLLTGVEYVVGRKNCAILIENDQSISRNHAVLTANFSVTNLSQTDEIPVLTLKDNSKYGTFVNEEKMQNGFSRTLKSGDGITFGVFGSKFRIEYEPLVACSSCLDVSGKTALNQAILQLGGFTVNNWTEECTHLVMVSVKVTIKTICALICGRPIVKPEYFTEFLKAVESKKQPPQIESFYPPLDEPSIGSKNVDLSGRQERKQIFKGKTFIFLNAKQHKKLSSAVVFGGGEARLITEENEEEHNFFLAPGTCVVDTGITNSQTLIPDCQKKWIQSIMDMLQRQGLRPIPEAEIGLAVIFMTTKNYCDPQGHPSTGLKTTTPGPSLSQGVSVDEKLMPSAPVNTTTYVADTESEQADTWDLSERPKEIKVSKMEQKFRMLSQDAPTVKESCKTSSNNNSMVSNTLAKMRIPNYQLSPTKLPSINKSKDRASQQQQTNSIRNYFQPSTKKRERDEENQEMSSCKSARIETSCSLLEQTQPATPSLWKNKEQHLSENEPVDTNSDNNLFTDTDLKSIVKNSASKSHAAEKLRSNKKREMDDVAIEDEVLEQLFKDTKPELEIDVKVQKQEEDVNVRKRPRMDIETNDTFSDEAVPESSKISQENEIGKKRELKEDSLWSAKEISNNDKLQDDSEMLPKKLLLTEFRSLVIKNSTSRNPSGINDDYGQLKNFKKFKKVTYPGAGKLPHIIGGSDLIAHHARKNTELEEWLRQEMEVQNQHAKEESLADDLFRYNPYLKRRR
notes: also called Nbs1; NBN
B2: no binding.

B3: Double-strand break repair protein MRE11A (enzyme)
chain: STADALDDENTFKILVATDIHLGFMEKDAVRGNDTFVTLDEILRLAQENEVDFILLGGDLFHENKPSRKTLHTCLELLRKYCMGDRPVQFEILSDQSVNFGFSKFPWVNYQDGNLNISIPVFSIHGNHDDPTGADALCALDILSCAGFVNHFGRSMSVEKIDISPVLLQKGSTKIALYGLGSIPDERLYRMFVNKKVTMLRPKEDENSWFNLFVIHQNRSKHGSTNFIPEQFLDDFIDLVIWGHEHECKIAPTKNEQQLFYISQPGSSVVTSLSPGEAVKKHVGLLRIKGRKMNMHKIPLHTVRQFFMEDIVLANHPDIFNPDNPKVTQAIQSFCLEKIEEMLENAERERLGNSHQPEKPLVRLRVDYSGGFEPFSVLRFSQKFVDRVANPKDIIHFFRHREQKEKTGEEINFGKLITKPSEGTTLRVEDLVKQYFQTAEKNVQLSLLTERGMGEAVQEFVDKEEKDAIEELVKYQLEKTQRFLKERHIDALEDKIDEEVRRFRETRQKNTNEEDDEVREAMTRARALRSQSEESASAFSADDLMSIDLAEQMANDSDDSISAATNKGRGRGRGRRGGRGQNSASRGGSQRGRADTGLETSTRSRNSKTAVSASRNMSIIDAFKSTRQQPSRNVTTKNYSEVIEVDESDVEEDIFPTTSKTDQRWSSTSSSKIMSQSQVSKGVDFESSEDDDDDPFMNTSSLRRNRR
B3: no binding.
